Assay results taken from the DeepSol protein solubility set.

Assay: soluble on expression in E. coli; label from the status in PepcDB or PDB records

Row | Sequence | soluble on expression in E. coli
1 | MGSDKIHHHHHHMNKNPEIQFRSPEEIKAYQESRLAEELLYLQNHSRFYQHLFQAYHIDIQQIKTIEDLQQIPVTTKTDLQLHNEDFICVSRDEIIDYVTTSGTLGDPVTFVLTSEDLDRLAYNEYLSFTTTGCSRQDILQLMTTIDRRFMAGLAYYMGARELGMGVARVGNGIPELQWDTIRRIHPTCGMVVPSFLIKLIEFAEKNHIDYHHCSMQKCVCIGEALRNPDFTLNTLGKRIHEKWDSLQLYSTYASTEMQSSFTECNEFHGGHLQPELIIVEFLDDNNQPVKEGEAGEVTITTLGVRGMPLLRFKTGDICYHYTEPCACGRNTIRLSSILGRKGQMIKYKGTTLYPPALFDILDNIPHIKNYIVEVYTNELGTDEILIRIGSENRSEAFAKEIKDLFRSKVRVAPSINFESAEYIAKIQMPPMSRKIVKFIDLR | not soluble
2 | MGSDKIHHHHHHMNLFSPHLKRNELIKFAKELDFSKSQDLLINVHRNHAFEGVQSIIAPFLHFANLRAEFNFSSYDDSLSFDNFKEASLELLWLDLTRYKNNVQNFIEERLLELRKISQNPILVLSLGEFKTDKKILNCEIFNIEKLIKEYFDEEDILDLAKEELTGSKLNNKALIFLAQILGLSLIPALVKPALKALVLDLDNTLYQGILGEEGIDNLNLSPLHKTLQEKIKTFKKQGFLLALASKNEEKDAKKLFEIRKDFILQWDDFDARMINWEPKGENILKIAKKFNINTNAMLFIDDNIAELENTKITGVKTLLCDENILYKIKLFPNLLKLSNTKEDQIRAKDIAANALREELKSLSDEEYFQNLEISLNFSKNDLQNIPRISELLGKTNQFIANYTRLNQEKVAQHMQKELIVSVSMSDKLSDSGIIAIFVFSCKEGNLFIDDLCISCRALGRKLETRMFFKAFELALHFFDLKNNNARLYYQKGERNMPFLSFLEQISKEFEKNSALIPFQNLNFKGLIIHEN | not soluble
3 | MGSDKIHHHHHHMNNQEKNMLGFNQDEYLTSAREIIAARQKAEQVADEIYQAGFSSLFFASVGGSLAPMMAINEFAKELTTLPVYVEQAAELIHKGNKRLNKDSVVITLSKSGDTKESVAIAEWCKAQGIRVVAITKNADSPLAQAATWHIPMRHKNGVEYEYMLLYWLFFRVLSRNNEFASYDRFASQLEILPANLLKAKQKFDPQADAIASRYHNSDYMMWVGGAEMWGEVYLFSMCILEEMQWKRTRPVSSAEFFHGALELLEKDVPLILVKGEGKCRALDERVERFASKITDNLVVIDPKAYALDGIDDEFRWIMAPCVVSTLLVDRLAAHFEKYTGHSLDIRRYYRQFDY | soluble
4 | MGSDKIHHHHHHMNRKLIQIDQLKNQLTQYRPLSESEVKRLREEFIIESSYNSNAIEGNTITLRETVLILKEGMTIAEKPLREHLDIIGFKDAFNYIYELVANNEPLSERTIKDIHSLVLMNNAEGRGVYRKIPVRILGAENEPTAPYLIAEEMQSLIEKYQQKLTALHPIEAISWLHLAFESIHPFIDGNGRTGRLLINFELLKHGYLPVDIKFTHRANYYQCFDDFHKNQQDISRLVELISRYELTELERYLAILEQRT | not soluble
5 | MGSDKIHHHHHHMNRRDLLVGLGAATLVPKASWADAHNPAFLSAAQAPDGNYHLCGLDPRGDVVFSIPLPGRGHAAAAHPTRPEAVAFARRPGRFALILDCVTGQETARLLPPPNRHFYGHGTFSSDGDVLFTTENDLTTLEGRIGLWDAAHGYVRLGDVPSGGIGPHDIARLPGTETLVIANGGIATHPDSGRTPLNPATMRSNLAYMRTDGTLLERVELDVTLRQNSIRHLSIRDDGLVSAGMQWNGAEGEHPPLTLLHRIGAAPRLLAAPTQTHRQLDGYVGSISFDQAGAHVAVTSPRGGTVHIFDVNSGAFAGLITAEDICGLALSHRAGLIATTGQGITGFVAQDDLTQMRHSSWRWDNHIVAI | not soluble
6 | MGSDKIHHHHHHMNSINKNQPEKNHEDLKNKDSIDKIIELASDQTCFLCTTQGAKGNARPMAVQKVDKQGNIWFLSASDSNQNKEIQENSSVNLYFKGNQHSDFMHLYGEATVLRDETIIKELWNPVLKTWFTEGENDPRITIIKFTTKEGYYWDTKHGNFIAGIKMLIGAATGQTLDDSIEGSLQNQPVHNTHISHG | not soluble
7 | MGSDKIHHHHHHMNSTMQVLVIGGTGTLGRQIAKNAIDAGHKVRCMVRKPKAASFLQEWGCELTRGNLLNKEDIEYALDGIDAVIDAATSRPDDPRSVYETDWDGKLNLFNACEEKNVKRVVFLSLLAAEKYREIPLMDIKYCTEELLVSSSLDYTILQGVAFMQGAIGQFAIPILNNEPVWISGNPTDIAYMNTQDIARFAVAALDRPQTIKGRFPIVGPKAWSAKGLVDLCEKFSEKRARVLKVSPTIISIAQSVVSFFEPTLNVAERLSFSELSGSGGKLDAPMEDTYTAFGLNPADTTTMEGYIKEYYGVILKRLKDIGVDLDIEEKKKFPI | not soluble
8 | MGSDKIHHHHHHMNVLEQFYQLGWTLDSAGGASGEAYMAEQDGQKLFLKRNSNPFIAALSAEGIVPKLVWTKRIETGEVVTAQHWKNGRELNEDEMNQTRVAELLHKIHGSRPLLTMLKRMEMEPITPDIMLNKINASLSREVLTHHVVRRALTYLEDHIPNLDARFFTVVHGDVNHNNWLLSDRDELYLVDWEGAMIADPAIDIGMLLYNYVPQNKWSQWFKTYGVEESVNLNKRMKWYTVIQAIGLIQWYEEQKRYRDMNTWLKFLNEVMNSNLFI | not soluble
9 | MGSDKIHHHHHHMNYKLISIDLAKTVFQVAAFNPDNTIAFNRKINRPALLDMLRQCEPTLVVMEACYSANYWGRTIEKLGHTVKLIPARMVKAMLVGNKNDANDAVAIGETAGRPKVSLLRPKTVEQQDIQSLLRIRERLVENRTANCNQLRGFLAEYGLIVAKTRRQLMLAIPLILEDADNELSTVARGFIQRLYEFQLYLNEQIDQVAQDILALAQAMPQYPLLLTIPGVGPIVASTLLASINEVNDFKNGRQLAAWLGLTPSQYSSGTTNRLGKITKRGNQTLRRLLIHGARTVVNWCDKKDDSLSLWLQRLKQRQHVCKVTVALANKMARMVFVVMSRGQAFDMNKACKLAT | not soluble
10 | MGSDKIHHHHHHMNYKPEIAIIESNTLTCLGLKSILEEIIPMATIRTFHSFSELMDDTPDMYAHYFISAQIYVEHNAFFLPRKRKTIVLASDSPQFQLSGVPVLNIYEPEEKLVKSLLKLHQHAHHNGYPVKDMPPIAMPEVHQEILSAREIEVLVLITKGLINKEIADKLNISLTTVITHRKNITEKLGIKSVSGLTIYAVMNGYIEADRI | not soluble
11 | MGSDKIHHHHHHMNYPTTRLNWPRAWRVIPSRFPAVGLFERVASPDDFDALYALEAMTNDRLRDEVGDISLVPPEERLFGPGSTCIMAAFTHLNPQGSRFSDGSYGVFYCARKRDTAIAETRYHSARFMQATREPPMRLQMRLYSVQARGEAADLRVASKSDPRIVAPDDYSYPQAIGRSLRAAGALGIVYPSVRHSGGGCLAALRTGIVKNCLHAAYLEYNWNGEGIDAVFEVNRVL | not soluble
12 | MGSDKIHHHHHHMNYTFELKELQATHIVYLHHQGDISLIPSSIRKLMQWAGPKGLINGPANKLISVYQHEGKVLSVDIGLTVPQEVEGESEISKGLLSGGLYAIGHFEIGTDEIPAAWSLMYTLTSKHQCKPCAGKSFEIYQSIPLDQHPQDKCMIDLCIPVQMIDLKLIEEKAISILTECDTAMLASVTEEGYPRPVPMGKIKADGISQIWFSTGTFSDKTIQFQLNPKAGVCFMKGGDSIVLTGKVEIVSDMEIKKALWSDWMFAHFPGGVIDPSYCILKFTSEEATYWIDNEFVKASI | not soluble
13 | MGSDKIHHHHHHMNYTQNQKISQITPSTLVIGIDVAKDKHVARAQDDRGLEFGKRLIFENRIHGFELLLEWALRHAKENSKDHIIFGVEPTGHYWLNLAYYLTAKDFDFVLVNPMHVKKSKELDDNSPTKNDTKDAKVISQLIKDGRYSVPNLLDGIYAELREGVKLRDQLIQQLLITEGRIQNIIDRYFPEFFDVFGDWEGKAAFCTLKLFPFPSQIVKMTPEEVLRQWKPFVQRGVGIKRATKLVETAHKSIGITIGSHFAQREMSSLLDQWELFKKQLEELDQELEGVVRTIPGANEMIDITGLGVATVTTVLSEIGDLKKYKHPQQLVNLAGLSLRENSSGKFKGQTTITKRGRSKLRRALYLAIRPLVAHNPTFKALHHYYTKRPDKPLKKQQSLIALCCKLLRVLFVIGQKQCPFDGSKLLQGIPQEKTLQAA | not soluble
14 | MGSDKIHHHHHHMPARPNHLSNNIVFRDGVQVMRMDLHVHTEVSHDCQTRLRDIPAWLLRTNTRVIAITDHDEQRGGPELKRLVADLGLADRLSIIPGEEITTSEGELIGLFLEERIPPGLTPEATVQEIKAQGGLVLLQHGFDPLKRYRLRPEATQRIADQIDMVETFNSRLSRHHWNRVAAEWARARHLPVCAGSDAHTLRDIGEAWVETPFRLIHTPEQLLQALDEGVVGGRWTHPVYAYGLKQWRNLNGRFQRKD | not soluble
15 | MGSDKIHHHHHHMPAYKVLQKGKTGDLLNVKHLYIKDIQSGEKVQDSFLVTEKNVAYSQKGAPYLNLRLKDKTGQVDGKIWDNALEWDKRFRKGDVVQVNARAVSFRNSLQLSILSLNTLDDSEVILNDYVPTTRMNVEVMFSELQSIIDRIDTPPLKKLLKSFFDDREIAERFKRAPAAKGFHHIYLGGLLEHTHSVTRLLSQIASHYPGVNRDLLLTGGILHDIGKINEFSYDRLVEYSDEGRLIGHIIIGVEMIDEKITAIPDFPAYLAMELRHLILSHHGILEYGSPKRPKTLEALMVHYVDDLDAKVNAFQEYLNDFRDEDTGWTPFHRFLERYLYRGRVQEITAEEPISPKEF | not soluble
16 | MGSDKIHHHHHHMPDLFVTNFNRNFTGVSATAANVIRQQVATHDLALVGHALPGCPAPISARAARALSRTPPPGKPFAIWHVRRNPEMQTAIWARDVLRLPIRIVFTSAAIRRHSAFPRWLISRMDAVVATSDAAASFVPHVRAVVPHGVDTDRFTPAPDRPAAWAAQGYGGSFGIATIGRVRPEKGTDLFVEAMLRLLPDMPGAVALVVGRATKEHQKFALTLKDKVQRAGMIDRIRFIDEVPPDRLPDLMRALSLVVQLPRYEGYGMVPLEAMASGVPFVGSDTGFFREFSAQGRAGRVVPLENAGLGAEAARALLADEDVHGAAALAAREIAVESFSAAREAAGIEAVYQQLWSQAAPGA | not soluble
17 | MGSDKIHHHHHHMPDMSMFGILNTALTGIHAHKLAMNIVGHNIANASTPGYSRQRPVIEANPPIPLTTLTQPSFPLQMGTGARVKTIVRLRDAFLDVQYRQVNNRYNYWDTVLSNLHFIEQLLAEPGEDGIRSLVDNFWNAFKEVMSDPSSTASKAEVVSRAQQMVSQIKDLYGRLEQLREDIDAEIVQRVSEINQMIKRLADLNNKIRTSMMLNSPPNDLLDERDRILDELSNLANINYTEAEDGQITLRIGNQIVLNGSTYRELRALERPYGKGYHELFVGNSQLILSDGKLKALIDLRDSSIVKYMRKLDEFVLFITDSLNLVHRDGFESNGVTTNLNFFKKIEAFSDDPSIFRIKGNRKLEMGPYHTVTGLHSANSQAEIEGRRFNSNDVVLSFDGGSSNVLNISAGTTIGDLVGSWNLLGTSLKVGTHAGGYRLYLEDSTGSLRNRLFLSLGDSLSQMGFDTETKGYITIKESDLSGLSSGVYNINVEYILEDGTRQTETISVDLSSGVNLSNIEASINSSSHLRAQIYADPSTGENMLVIVPDEQLNFDPSAVKVLSDDDFFTESNAFVRNYEVLKYKDTLENIFYGQTGFDPTRPFTITINSTDIEIDPAVDTLETLVEKINEKNTGVLADLTPHHSLVFRASSLYDFDLRMMEIKGPQGFFEAVGFVDPDGDPTTFDWNTSFTLVSKSDDFTTLSERFKVADILTFDRAPYDEPLNIVNQFEVSSSLATNPANLAVDVGYALENSDWNATSIKPSGGANPELLETIQNLYTRKMLSNGKESFYEFFGGVVSELGVEAETASNLKNNTEILRQEIDNAREEVKGVSLDEEMANMIEYQHAFSAAAKVITAVDQMIQTVINMVG | not soluble
